# In US20250043302A1, “MUTATED HYDROXYPHENYLPYRUVATE DIOXYGENASE POLYPEPTIDE, AND CODING GENE AND USE THEREOF” (BEIJING DABEINONG BIOTECHNOLOGY CO., LTD., priority 2021, published 2025):
# B1: HPPDm-1-02: nucleotide sequence encoding Avena sativa HPPD with A107 deletion+F372A+F383W; vector DBN11780 (nucleic acid)
# DNA: ATGCCACCTACTCCAGCTACAGCTACTGGTGCTGCTGCTGCTGCCGTTACTCCTGAGCACGCTGCCAGGTCATTCCCCAGGGTGGTTCGCGTGAACCCCAGATCTGATAGGTTCCCAGTTCTGAGCTTCCACCATGTTGAGCTGTGGTGCGCTGATGCTGCTTCTGCTGCTGGCAGGTTCTCTTTCGCTCTTGGTGCTCCACTCGCTGCTAGATCTGATCTGTCTACAGGAAATAGCGCTCATGCCTCACTCCTGCTTCGCTCAGGTGCTTTGGCCTTCCTCTTCACCGCTCCATATGCTCCCCCACCTCAGGAGGCTACTGCTGCTGCTACAGCCTCCATTCCAAGCTTCTCAGCTGATGCCGCTAGAACCTTCGCTGCTGCTCATGGACTTGCCGTGAGGTCTGTTGGTGTTCGCGTGGCTGATGCTGCTGAGGCTTTCAGAGTTTCCGTTGCCGGCGGAGCTAGGCCAGCTTTCGCTCCTGCTGATTTGGGACATGGTTTCGGCCTGGCTGAGGTTGAGCTTTACGGTGACGTGGTTCTCCGCTTCGTGTCTTACCCAGATGAGACTGACCTGCCTTTCCTTCCCGGCTTCGAGAGAGTTTCCTCTCCTGGTGCCGTGGATTACGGCCTGACAAGGTTCGACCACGTGGTTGGAAACGTTCCCGAGATGGCTCCAGTGATCGATTACATGAAGGGCTTCCTTGGATTCCATGAGTTCGCCGAGTTCACTGCTGAGGACGTGGGAACCACTGAGTCCGGTTTGAACTCTGTGGTTCTCGCCAACAATTCTGAGGCTGTTTTGCTCCCTCTGAATGAGCCTGTGCATGGAACCAAGAGGAGAAGCCAGATTCAAACTTACCTGGAGTACCACGGTGGCCCTGGAGTTCAGCATATCGCCCTTGCTTCTAATGATGTGTTGCGCACACTCAGAGAGATGCGCGCCAGAACCCCCATGGGAGGTTTCGAGTTCATGGCCCCACCACAGGCTAAGTACTACGAGGGCGTTAGAAGGATTGCTGGAGACGTGTTGAGCGAGGAGCAGATCAAGGAGTGCCAAGAGCTGGGTGTTCTTGTGGATAGGGATGACCAGGGCGTTCTGCTTCAAATTGCCACTAAGCCAGTGGGCGACCGCCCTACATTCTGGCTTGAGATGATTCAAAGAATCGGCTGCATGGAGAAGGATGAGGTTGGACAGGAGTACCAAAAGGGCGGATGCGGTGGCTTCGGAAAGGGTAACTTCAGCGAGTTGTTCAAGTCAATCGAGGACTACGAGAAGAGCCTCGAGGTGAAGCAGTCAGTGGTTGCCCAAAAGTCCTGA
# modifications: HPPDm-1-02 Nucleotide Sequence
# notes: vector DBN11780
# Experiments:
# Assay type in all cases: in vivo
# [1] = test system: Arabidopsis thaliana T1 plants; assay: Topramezone tolerance of transgenic Arabidopsis thaliana T1 plants (spray, bleached leaf area grade, damage score); conditions: Table 10; for Classification and statistics of the grade of pesticide damage Grade 0: number of plants at grade 0; for Classification and statistics of the grade of pesticide damage Grade 1: number of plants at grade 1; for Classification and statistics of the grade of pesticide damage Grade 2: number of plants at grade 2; for Classification and statistics of the grade of pesticide damage Grade 3: number of plants at grade 3; for Scores: pesticide damage score
# Method in brief: (§1)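 T1 transformants selected by glufosinate; 18-day-old plants, with empty-vector and wild-type controls, sprayed with topramezone (25–200 g ai/ha), isoxaflutole (35–280 g ai/ha) or mesotrione (52.5–420 g ai/ha), water as 0×. Bleached leaf area fraction scored at 7 DAT as grades 0–3.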
# [2] = test system: Arabidopsis thaliana T1 plants; assay: Isoxaflutole tolerance of transgenic Arabidopsis thaliana T1 plants (spray, bleached leaf area grade, damage score); conditions: Table 11; for Classification and statistics of the grade of pesticide damage Grade 0: number of plants at grade 0; for Classification and statistics of the grade of pesticide damage Grade 1: number of plants at grade 1; for Classification and statistics of the grade of pesticide damage Grade 2: number of plants at grade 2; for Classification and statistics of the grade of pesticide damage Grade 3: number of plants at grade 3; for Scores: pesticide damage score;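 for Scores: Weighted damage index from 0 to 100 where higher means more damage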
# Method in brief: as §1
# [3] = test system: Arabidopsis thaliana T1 plants; assay: Mesotrione tolerance of transgenic Arabidopsis thaliana T1 plants (spray, bleached leaf area grade, damage score); parameters: Scores: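 damage score 0-100 computed as Σ(N×S)/(T×M)×100 over grades 0-3 with higher meaning more damage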; conditions: Table 12; for Classification and statistics of the grade of pesticide damage Grade 0: number of plants at grade 0; for Classification and statistics of the grade of pesticide damage Grade 1: number of plants at grade 1; for Classification and statistics of the grade of pesticide damage Grade 2: number of plants at grade 2; for Classification and statistics of the grade of pesticide damage Grade 3: number of plants at grade 3; for Scores: pesticide damage score
# Method in brief: as §1
molecule,measurement,setting,value
B1,Resistance evaluation,[1]; topramezone 100 g ai/ha (4×),Highly resistant
same,Classification and statistics of the grade of pesticide damage Grade 0,[1]; topramezone 100 g ai/ha (4×),16
same,Classification and statistics of the grade of pesticide damage Grade 1,[1]; topramezone 100 g ai/ha (4×),0
same,Classification and statistics of the grade of pesticide damage Grade 2,[1]; topramezone 100 g ai/ha (4×),0
same,Classification and statistics of the grade of pesticide damage Grade 3,[1]; topramezone 100 g ai/ha (4×),0
same,Scores,[1]; topramezone 100 g ai/ha (4×),0
same,Resistance evaluation,[1]; topramezone 200 g ai/ha (8×),Highly resistant
same,Classification and statistics of the grade of pesticide damage Grade 0,[1]; topramezone 200 g ai/ha (8×),16
same,Classification and statistics of the grade of pesticide damage Grade 1,[1]; topramezone 200 g ai/ha (8×),0
same,Classification and statistics of the grade of pesticide damage Grade 2,[1]; topramezone 200 g ai/ha (8×),0
same,Classification and statistics of the grade of pesticide damage Grade 3,[1]; topramezone 200 g ai/ha (8×),0
same,Scores,[1]; topramezone 200 g ai/ha (8×),0
same,Resistance evaluation,[2]; isoxaflutole 140 g ai/ha (2×),Highly resistant
same,Classification and statistics of the grade of pesticide damage Grade 0,[2]; isoxaflutole 140 g ai/ha (2×),16
same,Classification and statistics of the grade of pesticide damage Grade 1,[2]; isoxaflutole 140 g ai/ha (2×),0
same,Classification and statistics of the grade of pesticide damage Grade 2,[2]; isoxaflutole 140 g ai/ha (2×),0
same,Classification and statistics of the grade of pesticide damage Grade 3,[2]; isoxaflutole 140 g ai/ha (2×),0
same,Scores,[2]; isoxaflutole 140 g ai/ha (2×),0
same,Resistance evaluation,[2]; isoxaflutole 280 g ai/ha (4×),Highly resistant
same,Classification and statistics of the grade of pesticide damage Grade 0,[2]; isoxaflutole 280 g ai/ha (4×),12
same,Classification and statistics of the grade of pesticide damage Grade 1,[2]; isoxaflutole 280 g ai/ha (4×),4
same,Classification and statistics of the grade of pesticide damage Grade 2,[2]; isoxaflutole 280 g ai/ha (4×),0
same,Classification and statistics of the grade of pesticide damage Grade 3,[2]; isoxaflutole 280 g ai/ha (4×),0
same,Scores,[2]; isoxaflutole 280 g ai/ha (4×),8
same,Resistance evaluation,[3]; mesotrione 210 g ai/ha (2×),Highly resistant
same,Classification and statistics of the grade of pesticide damage Grade 0,[3]; mesotrione 210 g ai/ha (2×),16
same,Classification and statistics of the grade of pesticide damage Grade 1,[3]; mesotrione 210 g ai/ha (2×),0
same,Classification and statistics of the grade of pesticide damage Grade 2,[3]; mesotrione 210 g ai/ha (2×),0
same,Classification and statistics of the grade of pesticide damage Grade 3,[3]; mesotrione 210 g ai/ha (2×),0
same,Scores,[3]; mesotrione 210 g ai/ha (2×),0
same,Resistance evaluation,[3]; mesotrione 420 g ai/ha (4×),Highly resistant
same,Classification and statistics of the grade of pesticide damage Grade 0,[3]; mesotrione 420 g ai/ha (4×),15
same,Classification and statistics of the grade of pesticide damage Grade 1,[3]; mesotrione 420 g ai/ha (4×),1
same,Classification and statistics of the grade of pesticide damage Grade 2,[3]; mesotrione 420 g ai/ha (4×),0
same,Classification and statistics of the grade of pesticide damage Grade 3,[3]; mesotrione 420 g ai/ha (4×),0
same,Scores,[3]; mesotrione 420 g ai/ha (4×),2
